In assay [1] the target is soluble monomeric FcγRIIIA-linker-AVITAG (158V allele) (human) (UniProt P08637). Nature of the assay: FACS, 0.1 µM biotinylated FcγRIIIA then 0.1 µM unlabeled FcγRIIIA. (A flow cytometer gives signals particle by particle.)
Assay [2] has the same target. Nature of the assay: BIAcore. For orientation: SPR reads the build-up and loss of mass on a sensor chip optically.
Assay [3] has the same target. Nature of the assay: BIAcore separate fit.
For assay [4] the target is unchanged. Nature of the assay: ELISA.
Assay [5] deals with FcγRIIB-Fc fusion protein (soluble dimeric FcγRIIB) (human) (UniProt P31994). Nature of the assay: BIAcore separate fit.
Sequence of FcγRIIB-Fc fusion protein (soluble dimeric FcγRIIB) (human) (P31994 43-217): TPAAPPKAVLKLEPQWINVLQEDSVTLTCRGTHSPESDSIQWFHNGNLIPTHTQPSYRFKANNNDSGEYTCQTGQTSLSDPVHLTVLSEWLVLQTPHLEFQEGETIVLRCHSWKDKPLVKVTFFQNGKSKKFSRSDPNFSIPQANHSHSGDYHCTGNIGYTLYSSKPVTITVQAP
For assay [6], the target named is soluble FcγRIIB (form used in the ELISA not stated) (human) (UniProt P31994). Nature of the assay: ELISA.
Sequence of soluble FcγRIIB (form used in the ELISA not stated) (human) (P31994 43-180 limits assumed, form in doubt): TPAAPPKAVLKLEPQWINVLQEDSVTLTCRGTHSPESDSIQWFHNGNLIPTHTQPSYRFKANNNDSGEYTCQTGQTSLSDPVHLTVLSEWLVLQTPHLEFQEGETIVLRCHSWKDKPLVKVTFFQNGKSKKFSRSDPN
For assay [7], the target named is FcγRIIB-Fc fusion protein (soluble dimeric FcγRIIB) (human) (UniProt P31994). Nature of the assay: BIAcore.
Assay [8] concerns the target wild type CH1-CH3 Fc fusion protein displayed on yeast (pYD-CH1) (Saccharomyces cerevisiae; human) (UniProt P32781). Nature of the assay: FACS titration 1.4 to 0.0006 µM, mean fluorescence, nonlinear regression.

Several values for one entry are separate records, joined by “and”; a condition that tells them apart may be missing. Equal entries are not always repeated.

By Kd is commonly meant the free concentration of one partner at which half of the binding sites on the other are occupied at equilibrium, for simple one-to-one binding. A lower Kd goes with a tighter complex. In general, koff refers to a measure of how fast the partners let go of each other. The low end stands for slow dissociation, the high end for fast dissociation.

Sequence of soluble monomeric FcγRIIIA-linker-AVITAG (158V allele) (human) (P08637 17-203 F176V limits assumed, form in doubt): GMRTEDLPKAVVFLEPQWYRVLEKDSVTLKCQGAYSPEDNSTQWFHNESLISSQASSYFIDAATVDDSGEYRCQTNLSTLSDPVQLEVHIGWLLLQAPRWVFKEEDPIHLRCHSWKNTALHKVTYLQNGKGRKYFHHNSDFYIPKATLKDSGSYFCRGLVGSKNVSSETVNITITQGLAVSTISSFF
Sequence of P396L Fc variant displayed on the yeast surface (P32781 19-87, stated change not applied): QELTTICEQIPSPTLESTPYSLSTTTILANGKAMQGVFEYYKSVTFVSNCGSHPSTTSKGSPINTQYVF

Regarding “P396L Fc variant displayed on the yeast surface (from UniProt P32781 19-87)”, the loss of cell staining after 1 minute with unlabeled receptor in assay [1] amounted to 50%.

The substance “ch4-4-20 E293V, Q295E, A327T (from UniProt P01857 1-330) (antibody)” yielded a Kd in assay [2] of 195 nM.

In turn, “ch4-4-20 G316D, A378V, D399E (from UniProt P01857 1-330) (antibody)” yielded a Kd in assay [2] of 72 nM. This Kd lies about […]-fold lower than the previous one.

On to “ch4-4-20 H268N, P396L (from UniProt P01857 1-330) (antibody)”, for which the Kd in assay [2] is 178 nM. Compared with the last substance, the Kd is about 2.5-fold higher.

On to “ch4-4-20 K248M (from UniProt P01857 1-330) (antibody)”, for which the dissociation constant Kd in assay [2] is 154 nM and 180 nM.

Turning to “ch4-4-20 K288M, K334E (from UniProt P01857 1-330) (antibody)”, the dissociation constant Kd in assay [3] and in assay [2] was 75.4 nM in each case.

With “ch4-4-20 K288N, A330S, P396L (from UniProt P01857 1-330) (antibody)”, the Kd in assay [3] and in assay [2] was 128 nM each time.

Consider “ch4-4-20 K334E, R292L (from UniProt P01857 1-330) (antibody)”, for which the Kd in assay [3] and in assay [2] was 70.2 nM throughout.

In turn, “ch4-4-20 K334E, T359N, T366S (from UniProt P01857 1-330) (antibody)” showed a Kd in assay [2] of 55.2 nM.

In assay [3], “ch4-4-20 Mut25(0225) (MgFc 25: E333A, K334A, S298A) (from UniProt P01857 1-330) (antibody)” displayed a Kd of 48.6 nM.

In turn, “ch4-4-20 Mut 6 (S219V) (from UniProt P01857 1-330) (antibody)” gave a Kd in assay [3] of 264 nM. In assay [4], this substance displayed an ELISA, OD of 0.6 OD.

“ch4-4-20 P247L, N421K (from UniProt P01857 1-330) (antibody)”: in assay [2], the Kd was determined as 62 nM. This counts as double-digit nanomolar.

As to “ch4-4-20 V379M (from UniProt P01857 1-330) (antibody)”, the Kd amounted to 214 nM in assay [3] and 160 nM in assay [2].

In assay [2], “ch4-4-20 Y319F, P352L, P396L (from UniProt P01857 1-330) (antibody)” showed a Kd of 125 nM. That is a sub-micromolar value.

Consider “chimeric 4-4-20 anti-fluorescein monoclonal antibody, wild type Fc”, for which, in assay [5], the Kd was 61.4 nM and the koff is 0.085 s⁻¹. In assay [6], this substance came in with an ELISA binding relative to wt of 1 x and an ELISA, OD of 0.4 OD. In assay [4], this substance had an ELISA binding relative to wt of 1 x and an ELISA, OD of 0.5 OD. In assay [7], this substance yielded a Kd of 94 nM and a koff of 0.094 s⁻¹.

The substance “soluble FcγRIIIA tetrameric complex (from UniProt P08637 17-203) (receptor)” registered a Kd in assay [8] of 6 nM.
